According to patent publication US10087225B2, “Formulation of MK2 inhibitor peptides” (MOERAE MATRIX, INC., priority 2015, dated 2018):

Tests used:
Test in all cases: Kinase Profiling Assay
Type in all cases: biochemical
[1] = molecular target: GSK3β(h) (Homo sapiens, UniProt P49841); conditions: 100 μM
[2] = molecular target: PDGFRα(h) (Homo sapiens, UniProt P16234); conditions: 100 μM
[3] = molecular target: T1, PKCϵ(h) (Homo sapiens, UniProt Q02156); conditions: 100 μM
T1 sequence (Q02156 1-737): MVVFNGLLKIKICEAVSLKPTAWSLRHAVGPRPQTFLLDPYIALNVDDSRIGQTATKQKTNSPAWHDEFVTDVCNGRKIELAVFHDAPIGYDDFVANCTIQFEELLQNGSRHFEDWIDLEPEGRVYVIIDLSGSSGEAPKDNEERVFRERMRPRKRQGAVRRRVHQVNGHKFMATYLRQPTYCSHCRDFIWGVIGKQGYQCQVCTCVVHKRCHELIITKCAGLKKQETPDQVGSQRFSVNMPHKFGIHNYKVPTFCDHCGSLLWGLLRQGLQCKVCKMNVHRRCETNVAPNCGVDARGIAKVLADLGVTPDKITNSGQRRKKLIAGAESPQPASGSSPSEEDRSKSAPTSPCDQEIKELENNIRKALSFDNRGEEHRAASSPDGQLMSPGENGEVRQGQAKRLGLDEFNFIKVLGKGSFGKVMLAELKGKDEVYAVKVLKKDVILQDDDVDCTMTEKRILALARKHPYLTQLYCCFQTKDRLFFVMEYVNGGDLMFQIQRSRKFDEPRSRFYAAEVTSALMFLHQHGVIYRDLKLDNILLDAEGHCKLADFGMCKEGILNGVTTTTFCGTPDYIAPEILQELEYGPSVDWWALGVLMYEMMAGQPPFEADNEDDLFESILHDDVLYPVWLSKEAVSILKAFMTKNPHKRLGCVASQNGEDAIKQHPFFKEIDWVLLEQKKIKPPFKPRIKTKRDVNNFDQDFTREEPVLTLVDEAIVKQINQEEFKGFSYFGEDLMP

[4] = molecular target: CaMKIIδ(h) (Homo sapiens, UniProt Q13557); conditions: 100 μM
[5] = molecular target: T2, GRK7(h) (Homo sapiens, UniProt Q8WTQ7); conditions: 100 μM
T2 sequence (Q8WTQ7 1-553): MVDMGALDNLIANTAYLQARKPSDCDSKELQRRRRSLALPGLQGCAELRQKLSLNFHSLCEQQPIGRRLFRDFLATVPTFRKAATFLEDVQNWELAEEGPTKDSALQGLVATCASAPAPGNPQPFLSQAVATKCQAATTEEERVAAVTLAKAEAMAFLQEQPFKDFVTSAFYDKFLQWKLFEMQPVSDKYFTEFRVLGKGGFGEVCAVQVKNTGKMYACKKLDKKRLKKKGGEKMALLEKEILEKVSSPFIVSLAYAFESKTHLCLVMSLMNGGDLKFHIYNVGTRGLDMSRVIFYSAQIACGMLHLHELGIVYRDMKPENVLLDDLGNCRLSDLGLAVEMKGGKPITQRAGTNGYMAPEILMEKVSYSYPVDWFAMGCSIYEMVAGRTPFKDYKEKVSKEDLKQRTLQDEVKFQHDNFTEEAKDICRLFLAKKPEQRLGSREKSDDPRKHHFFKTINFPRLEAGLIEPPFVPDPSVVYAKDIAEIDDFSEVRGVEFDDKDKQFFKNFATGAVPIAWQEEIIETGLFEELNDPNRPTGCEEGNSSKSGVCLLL

[6] = molecular target: T3, SAPK3(h) (Homo sapiens, UniProt P53778); conditions: 100 μM
T3 sequence (P53778 1-367): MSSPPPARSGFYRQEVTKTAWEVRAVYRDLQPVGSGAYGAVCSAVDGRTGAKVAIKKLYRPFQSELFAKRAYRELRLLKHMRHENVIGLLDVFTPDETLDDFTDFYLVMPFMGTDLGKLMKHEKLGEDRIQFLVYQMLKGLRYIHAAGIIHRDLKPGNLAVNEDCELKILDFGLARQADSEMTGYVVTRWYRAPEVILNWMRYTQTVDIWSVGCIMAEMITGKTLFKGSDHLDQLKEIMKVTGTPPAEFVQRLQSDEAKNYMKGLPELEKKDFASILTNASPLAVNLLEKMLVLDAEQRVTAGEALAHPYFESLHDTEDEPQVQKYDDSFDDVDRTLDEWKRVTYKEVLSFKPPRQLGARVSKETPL

[7] = molecular target: Pim-2(h) (Homo sapiens, UniProt Q9P1W9); conditions: 100 μM
[8] = molecular target: ROCK-II(h) (Homo sapiens, UniProt O75116); conditions: 100 μM
[9] = molecular target: Syk(h) (Homo sapiens, UniProt P43405); conditions: 100 μM
[10] = molecular target: RIPK2(h) (Homo sapiens, UniProt O43353); conditions: 100 μM
[11] = molecular target: Lck(h) activated (Homo sapiens, UniProt P06239); conditions: 100 μM
[12] = molecular target: BTK(R28H)(h) (Homo sapiens, UniProt Q06187, R28H)
[13] = molecular target: T4, NLK(h) (Homo sapiens, UniProt Q9UBE8)
T4 sequence (Q9UBE8 1-527): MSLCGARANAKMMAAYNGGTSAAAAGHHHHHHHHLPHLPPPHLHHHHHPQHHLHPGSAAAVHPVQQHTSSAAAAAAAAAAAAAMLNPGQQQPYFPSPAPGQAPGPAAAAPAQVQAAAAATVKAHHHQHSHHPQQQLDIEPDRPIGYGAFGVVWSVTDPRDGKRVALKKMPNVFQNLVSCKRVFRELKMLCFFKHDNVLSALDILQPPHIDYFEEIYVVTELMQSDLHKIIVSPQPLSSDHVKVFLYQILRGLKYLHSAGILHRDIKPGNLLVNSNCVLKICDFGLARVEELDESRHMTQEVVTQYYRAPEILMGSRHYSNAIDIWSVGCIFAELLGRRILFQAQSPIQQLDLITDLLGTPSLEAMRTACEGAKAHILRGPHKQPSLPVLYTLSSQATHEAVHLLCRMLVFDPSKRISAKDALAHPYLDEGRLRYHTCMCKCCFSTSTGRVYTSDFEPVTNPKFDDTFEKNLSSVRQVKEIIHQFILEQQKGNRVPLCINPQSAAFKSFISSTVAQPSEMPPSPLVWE

[14] = molecular target: Flt4(h) (Homo sapiens, UniProt P35916)
Flt4(h), sequence (P35916 25-1363): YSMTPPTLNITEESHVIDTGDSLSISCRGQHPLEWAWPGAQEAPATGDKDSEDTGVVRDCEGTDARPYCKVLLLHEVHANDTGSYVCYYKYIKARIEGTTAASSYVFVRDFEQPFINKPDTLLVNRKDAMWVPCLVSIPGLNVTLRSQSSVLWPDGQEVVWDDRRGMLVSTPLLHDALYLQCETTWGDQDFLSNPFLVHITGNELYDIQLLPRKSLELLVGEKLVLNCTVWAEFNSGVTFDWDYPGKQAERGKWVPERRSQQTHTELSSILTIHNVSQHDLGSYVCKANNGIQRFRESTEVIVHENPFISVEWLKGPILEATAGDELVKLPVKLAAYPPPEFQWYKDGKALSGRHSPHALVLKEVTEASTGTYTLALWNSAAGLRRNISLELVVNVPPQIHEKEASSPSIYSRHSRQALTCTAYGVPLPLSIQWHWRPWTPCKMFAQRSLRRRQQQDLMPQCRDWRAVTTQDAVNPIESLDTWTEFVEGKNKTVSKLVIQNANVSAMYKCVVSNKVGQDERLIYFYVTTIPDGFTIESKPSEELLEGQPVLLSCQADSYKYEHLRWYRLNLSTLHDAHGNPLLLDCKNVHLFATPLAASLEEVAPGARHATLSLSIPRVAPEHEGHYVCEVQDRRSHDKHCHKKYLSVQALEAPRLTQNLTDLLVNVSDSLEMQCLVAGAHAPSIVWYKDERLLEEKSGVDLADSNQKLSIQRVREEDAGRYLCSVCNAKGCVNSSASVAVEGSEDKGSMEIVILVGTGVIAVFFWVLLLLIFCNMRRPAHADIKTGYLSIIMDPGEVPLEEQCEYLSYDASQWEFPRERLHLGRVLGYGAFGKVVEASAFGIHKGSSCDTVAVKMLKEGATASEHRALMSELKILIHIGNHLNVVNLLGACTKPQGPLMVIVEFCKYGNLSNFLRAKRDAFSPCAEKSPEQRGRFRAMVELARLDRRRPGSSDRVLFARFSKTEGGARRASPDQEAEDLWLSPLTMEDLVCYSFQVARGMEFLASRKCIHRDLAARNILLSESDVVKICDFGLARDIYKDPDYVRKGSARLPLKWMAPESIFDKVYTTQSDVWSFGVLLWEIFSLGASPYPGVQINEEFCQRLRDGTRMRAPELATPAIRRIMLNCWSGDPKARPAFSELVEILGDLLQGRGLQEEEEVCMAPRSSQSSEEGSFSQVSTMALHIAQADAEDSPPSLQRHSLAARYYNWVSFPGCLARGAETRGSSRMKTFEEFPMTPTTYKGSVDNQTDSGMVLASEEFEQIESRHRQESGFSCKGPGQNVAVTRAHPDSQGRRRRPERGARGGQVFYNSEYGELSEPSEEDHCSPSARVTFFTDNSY

GSK3β(h), sequence (P49841 whole entry): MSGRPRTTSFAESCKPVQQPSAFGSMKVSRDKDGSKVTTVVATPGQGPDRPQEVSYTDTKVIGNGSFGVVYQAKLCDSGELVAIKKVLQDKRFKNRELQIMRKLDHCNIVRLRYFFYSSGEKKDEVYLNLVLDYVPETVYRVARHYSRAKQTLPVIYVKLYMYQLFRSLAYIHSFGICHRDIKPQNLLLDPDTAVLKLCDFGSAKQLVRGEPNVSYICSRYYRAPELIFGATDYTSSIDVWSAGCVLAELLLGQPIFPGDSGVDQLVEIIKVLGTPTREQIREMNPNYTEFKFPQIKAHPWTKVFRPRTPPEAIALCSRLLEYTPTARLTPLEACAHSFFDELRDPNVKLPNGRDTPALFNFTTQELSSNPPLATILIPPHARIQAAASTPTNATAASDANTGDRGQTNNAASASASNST
BTK(R28H)(h), sequence (Q06187 whole entry R28H): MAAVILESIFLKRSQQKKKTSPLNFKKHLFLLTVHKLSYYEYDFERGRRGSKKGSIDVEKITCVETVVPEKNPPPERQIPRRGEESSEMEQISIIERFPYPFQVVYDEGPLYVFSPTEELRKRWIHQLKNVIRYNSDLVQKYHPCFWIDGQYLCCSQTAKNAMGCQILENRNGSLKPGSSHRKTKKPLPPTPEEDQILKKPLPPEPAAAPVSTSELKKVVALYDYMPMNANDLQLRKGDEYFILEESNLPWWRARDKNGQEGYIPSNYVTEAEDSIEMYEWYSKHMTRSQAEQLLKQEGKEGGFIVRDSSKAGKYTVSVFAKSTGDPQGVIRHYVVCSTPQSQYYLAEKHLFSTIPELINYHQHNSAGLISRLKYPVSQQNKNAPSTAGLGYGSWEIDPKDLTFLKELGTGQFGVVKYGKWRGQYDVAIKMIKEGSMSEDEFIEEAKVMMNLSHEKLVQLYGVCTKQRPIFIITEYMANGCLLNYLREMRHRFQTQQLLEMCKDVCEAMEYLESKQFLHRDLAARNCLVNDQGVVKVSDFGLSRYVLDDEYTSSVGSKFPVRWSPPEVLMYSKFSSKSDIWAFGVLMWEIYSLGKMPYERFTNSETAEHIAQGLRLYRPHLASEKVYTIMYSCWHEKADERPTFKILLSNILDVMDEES
Lck(h) activated, sequence (P06239 whole entry): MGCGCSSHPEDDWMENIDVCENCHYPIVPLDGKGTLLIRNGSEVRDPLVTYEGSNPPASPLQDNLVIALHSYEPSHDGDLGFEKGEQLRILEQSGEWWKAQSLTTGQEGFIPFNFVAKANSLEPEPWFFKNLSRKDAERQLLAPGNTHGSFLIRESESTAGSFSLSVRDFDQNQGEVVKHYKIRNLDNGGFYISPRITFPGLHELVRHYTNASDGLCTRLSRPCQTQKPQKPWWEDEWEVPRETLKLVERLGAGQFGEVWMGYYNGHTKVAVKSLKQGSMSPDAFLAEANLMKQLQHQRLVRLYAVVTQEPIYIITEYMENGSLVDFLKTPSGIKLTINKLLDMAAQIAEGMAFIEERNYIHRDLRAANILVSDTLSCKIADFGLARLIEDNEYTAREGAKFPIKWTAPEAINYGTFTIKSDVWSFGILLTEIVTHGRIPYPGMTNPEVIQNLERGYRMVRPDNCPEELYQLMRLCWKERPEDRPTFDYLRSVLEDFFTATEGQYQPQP
RIPK2(h), sequence (O43353 whole entry): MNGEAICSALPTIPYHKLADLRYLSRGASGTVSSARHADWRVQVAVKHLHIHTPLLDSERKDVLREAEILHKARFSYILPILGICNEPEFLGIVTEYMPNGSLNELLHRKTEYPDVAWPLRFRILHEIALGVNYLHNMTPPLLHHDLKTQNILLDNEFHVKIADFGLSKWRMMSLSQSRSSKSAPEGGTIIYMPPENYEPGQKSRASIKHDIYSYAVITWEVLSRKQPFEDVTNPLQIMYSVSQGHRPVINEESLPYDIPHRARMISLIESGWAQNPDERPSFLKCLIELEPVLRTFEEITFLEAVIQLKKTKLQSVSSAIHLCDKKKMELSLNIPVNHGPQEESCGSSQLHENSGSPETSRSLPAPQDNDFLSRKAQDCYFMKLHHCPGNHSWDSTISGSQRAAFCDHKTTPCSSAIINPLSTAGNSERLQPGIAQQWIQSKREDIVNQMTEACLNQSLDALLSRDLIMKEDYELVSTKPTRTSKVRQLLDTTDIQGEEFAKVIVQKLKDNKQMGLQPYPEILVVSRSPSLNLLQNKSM
CaMKIIδ(h), sequence (Q13557 whole entry): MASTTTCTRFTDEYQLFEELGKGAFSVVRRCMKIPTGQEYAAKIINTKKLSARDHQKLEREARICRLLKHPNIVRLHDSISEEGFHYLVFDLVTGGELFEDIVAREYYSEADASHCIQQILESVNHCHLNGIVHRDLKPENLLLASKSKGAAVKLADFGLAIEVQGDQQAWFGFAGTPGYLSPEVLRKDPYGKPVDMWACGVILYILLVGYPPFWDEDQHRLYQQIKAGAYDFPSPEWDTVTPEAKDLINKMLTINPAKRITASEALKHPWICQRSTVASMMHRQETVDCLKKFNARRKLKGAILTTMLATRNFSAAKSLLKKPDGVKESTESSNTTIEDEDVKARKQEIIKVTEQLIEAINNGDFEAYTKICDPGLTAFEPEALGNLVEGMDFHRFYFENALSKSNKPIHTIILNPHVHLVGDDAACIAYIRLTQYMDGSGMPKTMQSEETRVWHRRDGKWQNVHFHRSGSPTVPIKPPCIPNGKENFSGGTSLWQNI
Pim-2(h), sequence (Q9P1W9 whole entry): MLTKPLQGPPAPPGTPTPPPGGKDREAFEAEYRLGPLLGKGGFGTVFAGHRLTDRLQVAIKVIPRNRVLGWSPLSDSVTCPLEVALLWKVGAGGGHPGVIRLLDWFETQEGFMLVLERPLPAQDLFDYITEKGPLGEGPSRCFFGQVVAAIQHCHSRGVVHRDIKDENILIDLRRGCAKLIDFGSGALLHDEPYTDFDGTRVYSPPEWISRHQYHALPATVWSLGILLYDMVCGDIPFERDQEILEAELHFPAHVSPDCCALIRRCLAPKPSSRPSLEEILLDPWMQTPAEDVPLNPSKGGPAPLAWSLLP

| Substance | % activity [1] | % activity [2] | % activity [3] | % activity [4] | % activity [5] | % activity [6] | % activity [7] | % activity [8] | % activity [9] | % activity [10] | % activity [11] | activity at 100 µM [12] | activity at 100 µM [13] | activity at 100 µM [14] | % activity ([12]; 100 μM) | % activity ([13]; 100 μM) | % activity ([14]; 100 μM) |
| --- | --- | --- | --- | --- | --- | --- | --- | --- | --- | --- | --- | --- | --- | --- | --- | --- | --- |
| YARAAARQARAKALNRQLGVA (Mammalian) [MMI-0200] | 132% | 108% | 98% | 2% | 124% | 97% | 74% | 85% | 36% | 98% | 90% | – | – | – | – | – | – |
| H-YARAAARQARAKALARQLGVAA-OH [MMI-0100] | – | – | – | – | – | – | – | – | – | – | – | 91% | 100% | 135% | – | – | – |
| HRRIKAWLKKIKALARQLGVAA (Mammalian) [MMI-0500] | 238% | 40% | 23% | 1% | 93% | 24% | 46% | 2% | 5% | 30% | 76% | – | – | – | 10% | 19% | 73% |
